Test results: US20250034245A1 (published 2025)
Positions count from the first letter of the chain named. Blank lines part the entries; values can stand above or below the binder they belong to.

Target: full-length human Siglec-8 (Siglec-8^FL) (human, UniProt Q9NYZ4 17-499)
Assay: BLI

full-length human Siglec-8 (Siglec-8^FL), sequence (Q9NYZ4 17-499): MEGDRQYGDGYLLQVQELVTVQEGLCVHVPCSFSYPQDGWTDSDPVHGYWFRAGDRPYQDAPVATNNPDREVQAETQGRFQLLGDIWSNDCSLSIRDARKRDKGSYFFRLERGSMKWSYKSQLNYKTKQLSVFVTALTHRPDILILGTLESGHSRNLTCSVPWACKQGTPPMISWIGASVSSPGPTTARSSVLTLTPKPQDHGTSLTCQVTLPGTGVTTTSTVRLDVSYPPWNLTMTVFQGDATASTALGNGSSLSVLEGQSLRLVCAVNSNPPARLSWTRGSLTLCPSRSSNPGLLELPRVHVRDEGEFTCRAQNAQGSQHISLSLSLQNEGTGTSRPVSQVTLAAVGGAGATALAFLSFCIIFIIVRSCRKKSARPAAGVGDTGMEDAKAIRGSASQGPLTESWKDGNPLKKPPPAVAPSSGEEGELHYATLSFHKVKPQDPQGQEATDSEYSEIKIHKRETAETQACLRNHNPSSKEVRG

B2: S8-ATX1B6 (antibody, V domains shown)
VH: QVQLVESGGGVVLPGRSLRLSCAASGFTFNIYGMHWVRQAPGKGLEWVAVISYDGNNKEYADSVKGRFTISRDSSRNTLYLQMNSLRAEDTAVYYCAKRGYGSSSLEFWGQGTLVTVSS
VL: DIQMTQSPSSLSASVGDRVTITCRSSQDIRNDLGWYQQKPGKAPKRLIYASSNLQSGVPSRFSGSGSGTEFTLTISSLQPDDFATYYCLQHNTYPYTFGQGTKLEIK
Kd: 0.00219 nM

B5: S8-ATX2G9 (antibody, V domains shown)
VH: EVQLVESGGGVVRPGGSLRLSCAASGFTFDDYGMSWVRQAPGKGLEWVSGINWNGGSTGYADSVKGRFSISRDNAKNSLYLQMNSLRAEDTALYYCAREGITILRGVIIEDWYFDLWGRGTLVIVSS
VL: not shown
Kd: 0.00413 nM

B7: S8-ATX1E4 (antibody, V domains shown)
VH: QVQLVQSGSELKKPGASVKVSCKTSGYTFTSYAMNWVRQAPGQGLEWMGWINTNTGNPTYAQGFRGRFVFSLDTSVSTAYLQISSLKAEDTAVYYCARDKYSSSWYWFDSWGQGTLVTVSS
VL: DIQMTQSPSSLSASVGDRVTITCRPSQNISSYLNWYQQKPGKAPKLLIYAASSLRSGVPSRFSGSGSGTDFTLTVSSLQPEDFANYYCQQSYSTPYTFGRGTKLEIK
Kd: 0.917 nM

B8: S8-ATX1H4 (antibody, V domains shown)
VH: QVQLVQSGTEVKYPGASVKVSCKASGYTFIDYGISWVRQAPGQGLEWMGWISAYNGNTDYAQKLQGRVTMTTDTSTSTAYMDLRSLRSDDTAVYYCAREGEGYCTYGVCPSFDYWGQGTLVTVSS
VL: EIVLTQSPGTLSLSPGERATLSCRASQSVSSSYLAWYQQKPGQAPRLLIYGASTRGTGIPDRFSGSGSGTDFTLTISRLEPEDFALYYCQQYGSSPYTFGQGTKLEIK
Kd: < 0.001 nM

B10: S8-ATX1E2 (antibody, V domains shown)
VH: EVQLVESGGGLVKPGESLRLSCAASGFTFSNAWMSWVRQAPGKGLEWVGRDGGARDYAAPVKGRFTISRDDSKNTLYLQMNTLKTEDTAVYYCTKGAFFFDYWGQGTLVTVSS
VL: EIVLTQSPGTLSLSPGERATLSCRASQSVISGYLAWYQQKPGQAPRLLIYGASRRATGITDRFSGSGSGTDFTLIISRLEPEDSAVYYCQQYDSSPRTFGQGTKVEIK
Kd: 0.655 nM

Now from value to binder:

Kd: 0.589 nM
B1: S8-ATX1E1 (antibody, V domains shown)
VH: EVQLVESGGGLVQPGRSLRLSCAASGFMFDDYVMHWVRQAPGKGLEWVSGINWNSDNIGYADSVKGRFTISRDNAKNSLFLQMNSLRVEDTALYYCAKDIDAAAFDYWGQGTLVTVSS
VL: DIVMTQSPLSLPVTPGEPASISCRSSQSLLHSNGYSYLAWYLQKPGQSPQLLIYLVSNRASGVPDRFTGSGSGTDFTLKISRVEAEDVGVYYCMQALQTPWTFGQGTKVEIK

Kd: 0.502 nM
B3: S8-ATX1B4 (antibody, V domains shown)
VH: B2 VH with L13Q, N30S, E59D, A61T, S74N, R76K, R87T
VL: B2 VL with S25A, S51T, N53S, G66R, T69A, I75V, D81E

Kd: 100 nM
B4: S8-ATX2F10 (antibody, V domains shown)
VH: EVQLVESGGDLVKSGGSLRLSCAASGFTFSDAWMSWVRQAPGKGLEWVGRIQSKTDGGTTDYVAPVKGRFTISRDDSKDTLYLHMNSLTTEDTAVYYCTTDLYYYGSGSYFLGQGTLVTVSS
VL: DIQMTQSPSSLSASVGDRVTITCRASQNIITYLNWYQQKPGKAPKLLIYAASSLQSGVPSRFSGSGSGTDFTLTISSLQPEDFAIYHCQQSYNVPTTFGQGTKLEIK

Kd: 10 nM
B6: S8-ATX2B11 (antibody, V domains shown)
VH: B5 VH with F29L, G56A, S57T, G59D, L79V, I103M, L104V, I124T
VL: not shown

Kd: < 0.001 nM
B9: S8-ATX2A3 (antibody, V domains shown)
VH: QVQLQESGPGLVKPSETLSLTCTVSGASISGYYWNWIRQPPGKGLEWIGYIHYSGTTNYNPSLKSRITISLDTSENQFSLRLSSVTAADTAVYYCARDWYTGYDWEGFDYWGQGTLVTVSS
VL: QSVLTQPPSVSGAPGQRVSFSCTGTSSNIGTGFDVHWYRQLPGTAPKVLIYNNNNRPSGVPDRFSASKSGTSASLAITGLQAEDEADYYCQSYDSSLSGSVFGGGTRLTVL
